Results taken from PMC11370617.

Experiments:
[1] = target: Mus musculus arginyltransferase 1 isoform 1 (MmATE1-1), affinity tag cleaved, apo (Mus musculus) (UniProt Q9Z2A5); test: SEC-MALS
[2] = target: Mus musculus arginyltransferase 1 isoform 1 (MmATE1-1), affinity tag intact, apo (Mus musculus) (UniProt Q9Z2A5); test: SEC-MALS

Row | percent of the total protein that is dimeric [1] [%] | percent of the total protein that is dimeric [2] [%] | Substance
1 | < 20 |  | Mus musculus arginyltransferase 1 isoform 1 (MmATE1-1), affinity tag cleaved, apo (from UniProt Q9Z2A5 1-516) (enzyme)
2 |  | < 20 | Mus musculus arginyltransferase 1 isoform 1 (MmATE1-1), affinity tag intact, apo (from UniProt Q9Z2A5 1-516) (enzyme)
